B1: mRNA export factor (Human herpesvirus 1 (strain 17) (HHV-1)), P10238 (parent)
chain: MATDIDMLIDLGLDLSDSDLDEDPPEPAESRRDDLESDSSGECSSSDEDMEDPHGEDGPEPILDAARPAVRPSRPEDPGVPSTQTPRPTERQGPNDPQPAPHSVWSRLGARRPSCSPEQHGGKVARLQPPPTKAQPARGGRRGRRRGRGRGGPGAADGLSDPRRRAPRTNRNPGGPRPGAGWTDGPGAPHGEAWRGSEQPDPPGGQRTRGVRQAPPPLMTLAIAPPPADPRAPAPERKAPAADTIDATTRLVLRSISERAAVDRISESFGRSAQVMHDPFGGQPFPAANSPWAPVLAGQGGPFDAETRRVSWETLVAHGPSLYRTFAGNPRAASTAKAMRDCVLRQENFIEALASADETLAWCKMCIHHNLPLRPQDPIIGTTAAVLDNLATRLRPFLQCYLKARGLCGLDELCSRRRLADIKDIASFVFVILARLANRVERGVAEIDYATLGVGVGEKMHFYLPGACMAGLIEILDTHRQECSSRVCELTASHIVAPPYVHGKYFYCNSLF
partner: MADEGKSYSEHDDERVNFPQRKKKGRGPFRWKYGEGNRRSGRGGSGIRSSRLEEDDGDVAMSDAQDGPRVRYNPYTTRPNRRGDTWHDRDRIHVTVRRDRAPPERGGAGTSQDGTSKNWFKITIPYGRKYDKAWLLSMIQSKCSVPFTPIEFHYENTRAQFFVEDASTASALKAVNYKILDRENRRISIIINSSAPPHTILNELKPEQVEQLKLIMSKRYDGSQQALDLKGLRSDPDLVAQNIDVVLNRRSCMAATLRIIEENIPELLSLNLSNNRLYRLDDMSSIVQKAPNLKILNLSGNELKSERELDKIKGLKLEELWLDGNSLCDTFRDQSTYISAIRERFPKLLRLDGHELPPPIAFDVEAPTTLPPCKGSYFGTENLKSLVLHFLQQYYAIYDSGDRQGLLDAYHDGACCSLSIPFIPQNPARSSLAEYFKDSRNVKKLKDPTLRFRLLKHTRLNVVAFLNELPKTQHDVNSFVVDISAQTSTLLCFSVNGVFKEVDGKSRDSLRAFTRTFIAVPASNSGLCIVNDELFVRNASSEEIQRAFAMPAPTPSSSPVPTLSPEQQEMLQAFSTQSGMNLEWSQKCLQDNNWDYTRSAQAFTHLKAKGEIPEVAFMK

Variants of: B1
Conditions: with nxf1_human NXF1, Q9UBU9

| Variant | effect of a mutation on the interaction |
| --- | --- |
| P465L;G466E | disrupting interaction |

Reference: IntAct's records for PubMed 22334672
